In patent US20200247855A1, “THERAPY AND DIAGNOSTICS” (OXFORD UNIVERSITY INNOVATION LIMITED, priority 2017, published 2020):

How the values were obtained:
[1] = system: chemokines; details: list of chemokines bound, from the literature [18,20-22]; cited from earlier work
[2] = system: leucocyte recruitment to the zymosan air-pouch; assay: Zymosan subcutaneous dorsal air-pouch inflammation model; format: in vivo; details: 5 mg/kg, exudate at 24 hours, mouse
Protocol: Zymosan or PBS (control) was injected into the air-pouch (a.p.) on day 6. Peptide or protein (blue) was injected into the air-pouch on day 6 at the time of zymosan injection and repeated 9 hours later. Air-pouch exudate was collected and analysed on day 7 by flow cytometry (FC).
G. Experimental design to assess efficacy of intraperitoneally administered peptide. This is identical to that used for locally administered peptide (above) except that peptide or protein was administered intraperitoneally (i.p.).
C57BL/6J male mice (25-30 g, 8-10-week-old) were obtained from Charles River (UK). They were group housed in temperature and humidity-controlled rooms, kept on a 12-hr light-dark cycle, and provided with food and water ad libitum. Air pouches were established at the dorsal side of the mice as described (Duarte, D. B. et al., Curr Protoc Pharmacol [2016]). […] Total numbers of leucocytes, neutrophils, monocytes, T-cells and eosinophils were counted using an Attune N×T flow cytometer following staining with cell specific antibodies. […]
To characterize the inflammatory subsets in the pouch, multi-colour fluorescence cell staining was conducted using the combination of the following antibodies for various immune cells. […] Data were analysed using FlowJo by an observer blinded to the treatment received. […]

[3] = molecular target: T1, CCL3_HUMAN (Homo sapiens, UniProt P10147); details: read-out: Kd, CCL3_HUMAN, previously described evasins; data obtained from publications [20-22,32]; cited from earlier work
T1 sequence (P10147 24-92): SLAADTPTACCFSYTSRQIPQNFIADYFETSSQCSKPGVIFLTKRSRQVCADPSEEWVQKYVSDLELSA

[4] = molecular target: T2, CCL14_HUMAN (Homo sapiens, UniProt Q16627); details: read-out: Kd, CCL14_HUMAN, previously described evasins; data obtained from publications [20-22,32]; cited from earlier work
T2 sequence (Q16627 20-93): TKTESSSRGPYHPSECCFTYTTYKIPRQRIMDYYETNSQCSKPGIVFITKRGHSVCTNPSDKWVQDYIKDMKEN

[5] = molecular target: T3, CCL15_HUMAN (Homo sapiens, UniProt Q16663); details: read-out: Kd, CCL15_HUMAN, previously described evasins; data obtained from publications [20-22,32]; cited from earlier work
T3 sequence (Q16663 22-113): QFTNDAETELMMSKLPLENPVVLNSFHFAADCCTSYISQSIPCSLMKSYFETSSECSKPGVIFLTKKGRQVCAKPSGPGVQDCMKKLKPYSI

[6] = molecular target: T4, CCL16_HUMAN (Homo sapiens, UniProt O15467); details: read-out: Kd, CCL16_HUMAN, previously described evasins; data obtained from publications [20-22,32]; cited from earlier work
T4 sequence (O15467 24-120): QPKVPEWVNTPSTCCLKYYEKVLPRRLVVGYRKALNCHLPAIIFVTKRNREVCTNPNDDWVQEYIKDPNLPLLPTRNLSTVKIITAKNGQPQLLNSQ

[7] = molecular target: T5, CCL18_HUMAN (Homo sapiens, UniProt P55774); details: read-out: Kd, CCL18_HUMAN, previously described evasins; data obtained from publications [20-22,32]; cited from earlier work
T5 sequence (P55774 21-89): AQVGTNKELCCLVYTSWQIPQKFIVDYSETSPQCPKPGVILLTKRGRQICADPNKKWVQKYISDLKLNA

[8] = molecular target: T6, CCL25_HUMAN (Homo sapiens, UniProt O15444); details: read-out: Kd, CCL25_HUMAN, previously described evasins; data obtained from publications [20-22,32]; cited from earlier work
T6 sequence (O15444 24-150): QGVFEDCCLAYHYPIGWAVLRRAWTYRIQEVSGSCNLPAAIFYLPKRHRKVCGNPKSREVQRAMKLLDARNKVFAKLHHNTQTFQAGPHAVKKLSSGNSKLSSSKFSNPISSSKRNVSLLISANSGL

B1: P1243_AMBAM: tick CKBP, Amblyomma americanum; AAM-02 stated identical (protein, listed as Amblyomma americanum)
chain: RNHTEDNSTEYYDYEEARCACPARHLNNTNGTVLKLLGCHYFCNGTLCTAPDGYPCYNLTAQQVRTLTTYPNTSCAVGVCMKGTCVKNGTMEQCFKTP
[1]
  Previously described chemokine binding: CCL11, CCL24, and CCL26, CCL2, and CCL7

B2: P672_RHIPU: tick CKBP, Rhipicephalus pulchellus (protein, listed as Rhipicephalus pulchellus)
chain: VCEVSEQEGVGEDNATEDEDYEDFFKPVTCYFANSTVGPLRPPNCTVVCTNNTAWWNDTKSDGGHCYSEYRPEKRTHSREIYNCTIGVCGNGTCIANHTYADCW
[2]; injected into the air-pouch at 0 and 9 h
  Number of neutrophils, eosinophils, monocytes and T-cells recruited to the air-pouch, local administration: strong and significant reduction
[2]; injected intraperitoneally at 0 and 9 h
  Number of neutrophils, eosinophils, monocytes and T-cells recruited to the air-pouch, intraperitoneal administration: substantial and significant reduction

B3: EVASIN4: previously described tick CKBP evasin 4, from Rhipicephalus sanguineus (protein, listed as Rhipicephalus sanguineus)
chain: EVPQMTSSSAPDLEEEDDYTAYAPLTCYFTNSTLGLLAPPNCSVLCNSTTTWFNETSPNNASCLLTVDFLTQDAILQENQPYNCSVGHCDNGTCAGPPRHAQCW
[3]
  Kd: 0.06 nM
[4]
  Kd: 0.14 nM
[5]
  Kd: 2.31 nM
[6]
  Kd: 0.26 nM
[7]
  Kd: 0.03 nM
[8]
  Kd: 69.6 nM
